The source of these data is patent US12134663B2, “Cationic peptides for activating Lck” (Interk Peptide Therapeutics Limited, priority 2018, dated 2024).

One data set concerns K562 cells. Description: Specific cytotoxicity of Calcein-AM stained K562 cells in PBMC co-culture. To be noted: PBMC pre-treated 0.08-1.25 μM 48 hrs, 5:1 ratio, 4 hrs; greater than IFN-α 2A; data not shown. It counts as cell-based. Here is the method: In brief, PBMC were incubated for 48 hrs then co-cultured together with Calcein AM stained K562 cells stimulated with or without human recombinant IFN-α 2A (5 ng/mL) for 4 hrs. Supernatants were assessed for Calcein green fluorescence intensity using the GloMax® Discover and percentage specific cytotoxicity was calculated. Data shown indicates mean percentage specific cytotoxicity +/− SEM, n=4. Data were analysed by paired t test in comparison to the vehicle control, *p<0.05.
PBMC were also pre-treated with or without the Lck activating polypeptides RSKAKNPLY-RRRRRRRRR (SEQ ID NO: 24, IK14800), RVKVKVVVV-RRRRRRRRR (SEQ ID NO: 58, IK15800), RSKAKNPLY-RRRRRRRRR-(2Adod)4-NH2 (SEQ ID NO: 65, IK14804) and RVKVKVVVV-RRRRRRRRR-(2Adod)4-NH2 (SEQ ID NO: 66, IK15804) (0.08-1.25 μM) for 48 hrs, then co-cultured with Calcein AM stained K562 cells at a 5:1 ratio and incubated for a further 4 hrs. Supernatants were assessed for Calcein green fluorescence intensity using the GloMax® Discover and percentage specific cytotoxicity was calculated. Data shown indicates mean percentage specific cytotoxicity +/− SEM, n=4. Data were analysed by repeated measures two-way ANOVA with Holm-Sidak's post-test comparing peptide treatment with vehicle control, *p<0.05, **P<0.01, ***P<0.001, ****p<0.0001.

The test system of the next data set is Fgr. Description: Lck Activity above control (1 µM) | Fgr. Here is the method:
(§1) Table printed on a drawing sheet, FIG. 2
Head of the field: Lck Activity above control (1 µM) | Fgr
(§2) First copying reader's note: Kinase activity above control for each Src family kinase at 1 µM peptide; the cell for IK00800/Fgr is printed as '%' without a digit.
Where the first naming reader finds the target: head: Lck Activity above control (1 µM) | Fgr

The target of data set [1] is T1, Lck (Homo sapiens, UniProt P06239).
T1 construct: purchased Eurofins Pharma Discovery Services UK Limited
Description: Lck Activity above control (1 µM) | Lck. The protocol:
as §1
Head of the field: Lck Activity above control (1 µM) | Lck
as §2
Where the first naming reader finds the target: head: Lck Activity above control (1 µM) | Lck

The target in a further data set is T2, Lck(h) (Homo sapiens, UniProt P06239).
T2 construct: purchased Eurofins Pharma Discovery Services UK Limited
In words: Western blot of Lck phosphorylation (4G10 and anti-pY394 antibodies). The data set is classed as biochemical. To be noted: peptide 1 and 10 μM, with ATP, 40 minutes. Here is the method: Western blot studies were performed by Eurofins Pharma Discovery Services UK Limited (Dundee, United Kingdom). […] Reactions were allowed to proceed for 40 minutes at room temperature before being stopped by the addition of SDS-sample buffer. In each case the Lck enzyme was diluted to yield 20 ng per 25 μl reaction. Appropriate controls in the absence of compound and peptide were also run as well as an untreated sample of both the Lck(h) and Lck(h) activated kinases. The resulting samples were then subjected to SDS-PAGE and western blot analysis using the antibodies 4G10 (anti-phospho-tyrosine antibody) (see FIG. 3) and anti-pY394 Lck (R&D Systems MAB7500) (see FIG. 2). An additional blot using the secondary detection antibody (anti-mouse-HRP) was also performed. The membranes were stained by Ponceau S to verify sample loading and effective protein transfer. The 4G10 antibody is a general anti-phospho-tyrosine antibody and there are several tyrosine residues in Lck but only one auto-phosphorylating tyrosine residue, i.e., at position Y394. […] Samples were as follows (numbers correspond to the lanes on the gel): • 1. Molecular weight markers • 2. Standard Lck • 3. Standard Lck+peptide substrate+ATP (no test peptide) • 4. Standard Lck−peptide substrate+ATP (no test peptide) • 5. Standard Lck+ATP+10Arg peptide (SEQ ID NO: 7, IK00100; 1 μM) (no peptide substrate) • 6. Standard Lck+ATP+10 Arg peptide (SEQ ID NO: 7, IK00100; 10 μM) (no peptide substrate) • 7. Standard Lck+ATP+8 Arg peptide (SEQ ID NO: 4, IK00800; 1 μM) (no peptide substrate) • 8. Standard Lck+ATP+8 Arg peptide (SEQ ID NO: 41K00800; 10 μM) (no peptide substrate) • 9. 10 Arg (SEQ ID NO: 7, IK00100) (10 μM) (test peptide only) • 10. 8 Arg (SEQ ID NO: 4, IK00800) (10 μM) (test peptide only)
The steps of the western blot protocol were as below: • SDS-PAGE gel: 50 minutes at 200V • Western blot transfer: 90 minutes at 25V • Membrane: Nitrocellulose Pre-Cut Blotting Membranes 0.2 μm pore size (LC2000 (Life Tech)) • Ponceau stain: 0.1% Ponceau S (w/v) in 5% acetic acid • The membrane was blocked with 10 mL PBST and 10% BSA for 1 hour before application of primary and secondary antibodies. Primary Antibodies: • 1. Anti-4G10 (Millipore 05-777) 1/1000 in PBST with overnight incubation at 4° C. followed by washing with 4×20 mL PBST. • 2. Anti-pY394 Lck (R&D Systems) 1/2500 in PBST with overnight incubation at 4° C. followed by washing with 4×20 mL PBST. Secondary Antibody:
Anti-mouse-hrp (Sigma A5278) 1/5000 in PBST followed by washing with 4×20 mL PBST for 5 hours on a spiral shaker at room temperature. Detection was performed via SuperSignal ELISA Pico Chemiluminescent Substrate—37070 (Pierce).

For data set [2], the target named is T1, Lck. In words: In vitro Lck activation kinase study (Eurofins). The data set is classed as biochemical. To be noted: for Lck activation (in words): peptide 1 μM where stated. The protocol: The ability of polypeptides of the present invention to activate Lck was examined in vitro. Lck is member of the Src family of tyrosine kinases. […] All results in are percentage Lck activity relative to control (100%).
Test polypeptides were assessed at a concentration of 1.0 μM.
The ability of polypeptides of the present invention to activate Src family kinases was examined in vitro. Kinase activation studies utilising peptides were carried out as described in Example 1, and all kinase activity values are shown as percentage relative to control.
The ability of polypeptides comprising both lysine and arginine to activate Lck in vitro was examined. Lck activation studies utilising peptides were carried out as described in Example 1, and all kinase activity values are shown as percentage relative to control.

The next data set has as its system wild-type Jurkat cells. Description: IL-2 secretion in stimulated wild-type Jurkat cells (ELISA). It counts as cell-based, human. To be noted: biotinylated anti-CD3, anti-CD28, avidin; 48 h exposure. The protocol: In brief, wild-type Jurkat cells (an immortalised line of human T lymphocyte cells) were stimulated by exposure to biotinylated anti-CD3 antibody in the presence of anti-CD28 antibody and avidin. During the culture period (48 hours or 72 hours) cells were exposed to test polypeptides. Cell supernatant was assayed for IL-2 at the end of 48 or 72 hours using a standard commercially available ELISA kit as described above.
In brief, cells were seeded at 1 million cells per well (12 well plate, 2 mL volume) and stimulated with Biotin-CD3, CD28, and avidin (5:5:1.25 μg). The cells were then treated with IK14804, and then incubated for 48 hours at 37° C. The supernatant (100 uL, n=3), was then analyzed for IL-2 content.
In brief, wild-type Jurkat cells (am immortalised line of human T lymphocyte cells) were stimulated by exposure to biotinylated anti-CD3 antibody in the presence of anti-CD28 antibody and avidin. Cells were seeded at 1 million cells per well (12 well plate, 2 mL volume) and stimulated with Biotin-anti-CD3, anti-CD28, and avidin (5:5:1.25 μg). Cells were treated with the test peptides and then incubated for 48 hours at 37° C. The supernatants (100 ul, n=3), were then analysed for IL-2 and IL-12 content. During the culture period (48 hours) cells were exposed to test polypeptide RSKAKNPLYR-(2Adod)4-NH2 (SEQ ID NO: 128). Cell supernatant was assayed for IL-2 and IL-12 at the end of 48 hours using standard commercially available ELISA kit as described above.
Background: ELISA stands for enzyme-linked immunosorbent assay.

Entries after “also recorded” stand apart in the source; their conditions may differ. Where a SMILES comes first, the peptide text is derived from it. Where no end group is shown, it is not given here. [ ]: non-standard residue; d: D form. ξ: configuration not given here. ξGly(decyl) = CCCCCCCCCCC(N)C(=O)O; 2Adod = 2-amino-dodecanoic acid

T2 sequence (P06239 whole entry): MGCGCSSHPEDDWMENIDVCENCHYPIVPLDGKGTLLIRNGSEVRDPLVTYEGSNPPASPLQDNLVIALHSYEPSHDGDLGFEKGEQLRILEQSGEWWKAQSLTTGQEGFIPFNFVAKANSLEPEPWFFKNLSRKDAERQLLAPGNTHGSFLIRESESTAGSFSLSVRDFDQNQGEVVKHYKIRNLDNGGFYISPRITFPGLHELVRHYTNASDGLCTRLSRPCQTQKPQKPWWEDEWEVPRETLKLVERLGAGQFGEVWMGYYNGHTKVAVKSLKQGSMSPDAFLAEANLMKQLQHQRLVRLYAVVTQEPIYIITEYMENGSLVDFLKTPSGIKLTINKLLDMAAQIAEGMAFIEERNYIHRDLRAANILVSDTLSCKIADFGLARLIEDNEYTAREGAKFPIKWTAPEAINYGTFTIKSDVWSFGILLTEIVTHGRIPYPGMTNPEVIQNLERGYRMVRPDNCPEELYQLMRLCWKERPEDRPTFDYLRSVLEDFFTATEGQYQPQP
T1 sequence (P06239 whole entry): as above

Regarding `CCCCCCCCCCC(NC(=O)C(CCCCCCCCCC)NC(=O)C(CCCCCCCCCC)NC(=O)C(CCCCCCCCCC)NC(=O)[C@H](CCCNC(=N)N)NC(=O)[C@H](CCCNC(=N)N)NC(=O)[C@H](CCCNC(=N)N)NC(=O)[C@H](CCCNC(=N)N)NC(=O)[C@H](CCCNC(=N)N)NC(=O)[C@H](CCCNC(=N)N)NC(=O)[C@H](CCCNC(=N)N)NC(=O)[C@H](CCCNC(=N)N)NC(=O)[C@H](CCCNC(=N)N)NC(=O)[C@H](Cc1ccc(O)cc1)NC(=O)[C@H](CC(C)C)NC(=O)[C@@H]1CCCN1C(=O)[C@H](CC(N)=O)NC(=O)[C@H](CCCCN)NC(=O)[C@H](C)NC(=O)[C@H](CCCCN)NC(=O)[C@H](CO)NC(=O)[C@@H](N)CCCNC(=N)N)C(N)=O` (some centres unmarked) [IK14804, RSKAKNPLYR-RRRRRRRR-(2Adod)4-NH2] (H-RSKAKNPLYRRRRRRRRR[ξGly(decyl)][ξGly(decyl)][ξGly(decyl)][ξGly(decyl)]-NH2), in the data set on K562 cells, the “percentage of specific cytotoxicity” value is “increased the percentage of specific cytotoxicity”.

Take `CCCCCCCCCCC(NC(=O)C(CCCCCCCCCC)NC(=O)C(CCCCCCCCCC)NC(=O)C(CCCCCCCCCC)NC(=O)[C@H](CCCNC(=N)N)NC(=O)[C@H](CCCNC(=N)N)NC(=O)[C@H](CCCNC(=N)N)NC(=O)[C@H](CCCNC(=N)N)NC(=O)[C@H](CCCNC(=N)N)NC(=O)[C@H](CCCNC(=N)N)NC(=O)[C@H](CCCNC(=N)N)NC(=O)[C@H](CCCNC(=N)N)NC(=O)[C@H](CCCNC(=N)N)NC(=O)[C@@H](NC(=O)[C@@H](NC(=O)[C@@H](NC(=O)[C@@H](NC(=O)[C@H](CCCCN)NC(=O)[C@@H](NC(=O)[C@H](CCCCN)NC(=O)[C@@H](NC(=O)[C@@H](N)CCCNC(=N)N)C(C)C)C(C)C)C(C)C)C(C)C)C(C)C)C(C)C)C(N)=O` (some centres unmarked) [IK15804, RVKVKVVVVR-RRRRRRRR-(2Adod)4-NH2] (H-RVKVKVVVVRRRRRRRRR[ξGly(decyl)][ξGly(decyl)][ξGly(decyl)][ξGly(decyl)]-NH2): the “percentage of specific cytotoxicity” value with K562 cells is “increased the percentage of specific cytotoxicity”.

Take HHHHHHHHHH [10His]: in the data set on Fgr, the “Lck Activity above control (1 µM) | Fgr” value is on record as 0%. The “Lck Activity above control (1 µM) | Lck” value with Lck [1] was determined as 0%.

As to “RRRRRRRR [IK00800] [listing 1 of 2 here]”, the “Lck Activity above control (1 µM) | Lck” value with Lck [1] is reported as 126%.

On to “RRRRRRRR [IK00800] [listing 2 of 2 here]”, for which the “phosphorylation at Y394 of Lck (anti-pY394 antibody)” value (from here on “phosphorylation at Y394 of Lck”) with Lck(h) (listed as 8 Arg) is recorded as “significant increase in the level of phosphorylation”. In the data set with Lck(h) (listed as 8Arg), the “level of phosphorylation on Lck (anti-phospho tyrosine 4G10 antibody)” value is “significant increase in the level of phosphorylation; also recorded: increased with increasing concentrations” and the “phosphorylation at Y394 of Lck” value was “Increased auto-phosphorylation was associated with increasing concentration”.

For the compound “RRRRRRRRRR [IK00100] [listing 1 of 2 here]”, the “Lck Activity above control (1 µM) | Fgr” value in the data set on Fgr stood at 0%. Besides, the “Lck Activity above control (1 µM) | Lck” value with Lck [1] was 389%.

For the compound “RRRRRRRRRR [IK00100] [listing 2 of 2 here]”, the “phosphorylation at Y394 of Lck” value is “significant increase in the level of phosphorylation” with Lck(h) (listed as 10 Arg) and “Increased auto-phosphorylation was associated with increasing concentration” in the data set with Lck(h) (listed as 10Arg). Also, in the data set with Lck(h) (listed as 10Arg), the “level of phosphorylation on Lck (anti-phospho tyrosine 4G10 antibody)” value was “significant increase in the level of phosphorylation; also recorded: increased with increasing concentrations”.

As to RSKAKNPLY [IK94000], the “Lck activation (in words)” value with Lck [2] is “no Lck activation”; in the data set with Lck [2] (listed as IK09400) it was “do not activate Lck”. For the same compound, in the data set with wild-type Jurkat cells, the “IL-2 secretion relative to control” value is on record as “increase IL-2 secretion”.

“RSKAKNPLY-RRRRRRRRR-NH2 (RSKAKNPLYRRRRRRRRR-NH2) [IK14800]”: the “Lck Activity above control (1 µM) | Fgr” value with Fgr is given as 0%. Further, the “Lck Activity above control (1 µM) | Lck” value with Lck [1] is recorded as 578%.

“RSKAKNPLYR (RSKAKNPLYR-{2Adod-2Adod-2Adod-2Adod-NH2}) [IK14000]”: the “Lck activation (in words)” value is reported as “do not activate Lck” with Lck [2] and “no Lck activation” with Lck [2] (listed as RSKAKNPLYR). In addition, the “IL-2 secretion relative to control” value in the data set with wild-type Jurkat cells is “increase IL-2 secretion”.

As for “RSKAKNPLYRRRRRRRRR-NH2 [IK14800, RSKAKNPLY-RRRRRRRRR-NH2]”, on Lck [2] (peptide 1 μM, relative to control), the Lck activation came out at 496%. Further, the “percentage of specific cytotoxicity” value with K562 cells is reported as “increased the percentage of specific cytotoxicity”.

As to “RVKVKVVVV-RRRRRRRRR (RVKVKVVVVRRRRRRRRR) [IK15800]”, in the data set with Fgr, the “Lck Activity above control (1 µM) | Fgr” value is given as 0%. Further, the “Lck Activity above control (1 µM) | Lck” value with Lck [1] was 593%.

With “RVKVKVVVVRRRRRRRRR-NH2 [IK15800, RVKVKVVVV-RRRRRRRRR]”, the “percentage of specific cytotoxicity” value in the data set with K562 cells is recorded as “increased the percentage of specific cytotoxicity”.
